Reference: patent US9944712B2, “TLR3 binding agents” (INNATE PHARMA, priority 2012, dated 2018)
Residue numbers refer to the chain shown, from its start.

B1: 32C4: rat anti-human TLR3 monoclonal antibody; VH SEQ ID NO: 25, VL SEQ ID NO: 26 (antibody, listed as Rattus norvegicus, V domains shown)
VH: EVQLQQYGAELGKPGTSVKLSCKVSGYNIWSTYIYWVNQRPGKGLEWIGRIDPANGNTIYAEKFKTKATLTADTSSNTAYMQLSQLKSDDTAIYFCAMGDHGGYVMDAWGQGASVTVSS
VL: DIQMTQSPGSLSASLGETVSIECLASEDIYSYLAWYQQKPGKSPQLLIYAANRLEDGVPSRFSGSGSGTQYSLKISGMQPEDEGDYFCLQGSEFPYTFGTGTKLELK
B2: 11E1: mouse anti-human TLR3 monoclonal antibody; VH SEQ ID NO: 3, VL SEQ ID NO: 4 (antibody, listed as Mus musculus, V domains shown)
VH: QVQLQQPGAELVRPGASVKLSCKASGYTFTNYWMNWVKQRPGQGLEWIGMIDPSDSETHYNQMFKDKATLTVDKSSSTAYMQLSSLTSEDSAVYYCARGGASSDYYYFDYWGQGTTLTVSSASTK
VL: ETTVTQSPASLSMAIGEKVTIRCITSTDIHDDINWYQQKPGEPPKLLISEGNTLRPGVPSRFSSSGYGTDFVFTIENMLSEDVADYYCLQSDNLPRTFGGGTKLEIKRT
B3: 7G11: rat anti-human TLR3 monoclonal antibody; VH SEQ ID NO: 47, VL SEQ ID NO: 48 (antibody, listed as Rattus norvegicus, V domains shown)
VH: EVQLQQYGAELGKPGTSVKLSCKVSGYNITYTYMHWVNQRPGKGLEWIGRIDPANGNTIYGEKFKNKATLTADTSSNTAYMQLSQLKSDDTAIYFCAMGEFDYFDHWGQGVMVTVSS
VL: DIQMTQSPASLSASLGETVSIECLASEDISNDLAWYQQKSGKSPQVLIYAASRLEDGVPSRFSGSGSGTRYSLKISGMQPEDEADYFCQQSYKYPVTFGSGTKLEIK
B4: 31F6: rat anti-human TLR3 monoclonal antibody; VH SEQ ID NO: 14, VL SEQ ID NO: 15 (antibody, listed as Rattus norvegicus, V domains shown)
VH: EVQLQQSGAELGKPGTSVKLSCKVSGYNIRYTYMHWVNQRPGKGLEWIGRIDPANGDSIYGEDFKTKATLTADTSSNTAYMQLSQLKSDDTAIYFCAMGEFDYFDYWGQGVMVTVSSASTK
VL: B3 VL with A9P, D28G, K39R, V46L, E55Q, S91N, V96L
B5: 37B7: rat anti-human TLR3 monoclonal antibody; VH SEQ ID NO: 36, VL SEQ ID NO: 37 (antibody, listed as Rattus norvegicus, V domains shown)
VH: QVQLQQSGTELVKPGSSVKISCKASGYTFTSNYMHWIRQLPGNGLEWIGWIFPGDGDTNYNQKFNGKATLTADKSSSTAYMQLSSLTSEDYAVYFCARSDGDWYFDFWGPGTMVTVSS
VL: DIQMTQSPGSLSASLGETVTIQCQASEDIYSGLAWYQQKPRKSPQLLISAASRLQDGVPSRFSGSGSGTQYSLKISSMQTEDEGVYFCQQGVKYPNTFGPGTKLELK

Experiments:
[1] = test system: COPD mouse model; test: COPD mouse model (Elastin and LPS); assay type: in vivo; conditions: drug combination study, FIG. 5E
Procedure: All mice were treated at days 0, 7, 14 and 21 with Elastin and LPS (i.n.), to induce COPD. At day 28 mice were sacrificed for analysis.
The cellular infiltrates into airways was measured by analysis of bronchoalveolar lavage (BAL) fluid by differential cell count on day 28. The oxygenation of venous blood was measured by gasometry on day 28. The level inflammatory mediators in BALF, through the analysis for protein levels of TNF-alpha, IL-6, IL-17A and IP-10 was performed by multiplex assay. […] Statistical analysis was performed on all data utilizing a Student's t test: ‘*’ p<0.05; ‘**’ p<0.005; ‘***’ p<0.0005.
Four groups of mice were treated as follows: • 1 group of mice with a vehicle (PBS, i.p., twice per week). • 1 group of mice with the anti-mouse TLR3 28G7 antibody administration (i.p., 500 μg/per mouse, […]; antagonist of PDE-4) (3 mg/kg, oral, five times per week). • 1 group of mice with both roflumilast and 28G7 antibody, each agent according to the schedule used as single agent.
All mice were treated with Elastin and LPS (i.n.), to induce COPD and sacrificed as in study A.
The cellular infiltrates into airways was measured by analysis of bronchoalveolar lavage (BAL) fluid by differential cell count as in Study A.

[2] = target: T1, human TLR3 solely at the cell surface (TLR3/CD32-expressing 293T cells) (Homo sapiens, UniProt O15455); test: Titration on HEK293T cells expressing TLR3 ECD-CD32 solely at the cell surface (FACS); assay type: binding; conditions: neutral pH
T1 construct: transiently transfected with the wild-type or mutant TLR3 ECD-CD32 construct; expressed in transfected cells; host or cells: HEK293T, transient, pcDNA3.1
Procedure: (§1) The mature wild-type or mutant TLR3 sequence was fused to the CD32 transmembrane and intracellular domains as described by De Bouteiller et al. (2005) J. Biol. Chem. 280(46): 38133-38145. A first round of PCR was performed to introduce a V5 tag in N-terminal position of the TLR3-CD32 fusion protein and a second round—using the first PCR as a template—to introduce the TLR3 leader peptide in the construct. The PCR product was TA-cloned into the pGEMTeasy vector for sequencing and finally cloned into the pcDNA3.1 vector using the NheI and NotI restriction sites.
(§2) Following two wash cycles, cell MFI was analyzed on a FACS Canto II cytometer. With the aim to study the effect of pH on mAb affinity, staining was performed in staining buffer (0.2% BSA, 2 mM EDTA, 0.02% Sodium Azoture) pH7.4 or in citric acid-acidified staining buffer pH5.6.
Additionally, binding (e.g. affinity) to cell surface TLR3 at neutral pH may differ from that of endosomally-expressed TLR3 at acidic pH. Antibodies were tested for binding to cells expressing human TLR3 solely at the cell surface (TLR3/CD32-expressing 293T cells), at neutral pH conditions since pH could potentially affect TLR3 conformation.

[3] = target: human TLR3 (Homo sapiens, UniProt O15455); test: 293T-TLR3-ISRE luciferase reporter assay; assay type: cell-based; conditions: dsRNA TLR3 agonists
Text: A reporter gene assay using as promoter ISRE (IFN-stimulated response element) and as reporter gene and protein luciferase was set up. A 293T cell line (ATCC, #CRL-1573) was stably transfected with pISRE-luc plasmid (#219089—Stratagene), further selected by cloning as inducing optimal response to IFN-alpha stimulation and referred to as control 293T-ISRE. This cell line was further stably transfected with pUNO-humanTLR3 plasmid (#puno-htlr3—InVivogen) and referred to as 293T-TLR3-ISRE.
Efficacy assay was performed as described: on day 0, cells are seeded at 4×10^5 cells/mL in complete culture medium in 96-well culture plate (100 μl/well). Cells are first incubated at 37° C. for 20 hours, then 50 μL of medium are discarded and cells are activated with 25 μl/well final of fixed amounts of polyAU together with increasing concentrations of anti-TLR3 antibodies. Cells incubated with fresh medium will be used as background luciferase activity (50 μl/well). Cells are incubated at 37° C. for 6 hours. 100 μL of freshly thawed Steady Glo (Promega) are added to each well, plates were incubated 10 min at RT in the dark and the light emitted in each well is quantified as Count Per Second (CPS) on a gamma-counter (TopCount) apparatus.
Antibodies were tested for inhibition of TLR3 signaling in a luciferase based reporter gene activity (293T-TLR3-ISRE). Engagement of TLR3 receptor using TLR3-agonists such as poly (I:C) has been reported to activate the type-IFN pathway including the promoter ISRE (Wietek et al. J. Biol. Chem., 278 (51), p50923, 2003). Briefly, dsRNA TLR3 agonists were used to induce TLR3 signaling in the reporter assay in the presence of anti-TLR3 antibodies, and TLR3 signaling was assessed. […] Each antibody is compared with reference antibody 31C3.

[4] = test system: TLR3 mutant polypeptides; test: FACS staining of cells expressing TLR3 mutant polypeptides (epitope mapping); assay type: binding, human; conditions: for binding to wild type TLR3 and mutants K145E, D116R, E171A, K182E or N196A: FACS; for binding to TLR3 in presence of the mutation K145E or K182E: hybridoma clone screening
Procedure: Mutagenesis was performed on wild type human TLR3 inserted into a pcDNA3.1 vector. After sequencing, the vectors containing the mutated sequences were prepared as Maxiprep using the Promega PureYield™ Plasmid Maxiprep System. Vectors were then used for HEK-293T cell transfection using Invitrogen's Lipofectamine 2000 according to the manufacturer instructions.
All the Mx-R primers were used with the following 5′ primer […] (SEQ ID NO: 121). All the Mx-F primers were used with the following 3′ primer […] (SEQ ID NO: 122). The sequences amplified were run on agarose gel then purified using the Qiagen Gel Extraction kit. The two PCR product generated for each mutant were then ligated into a pcDNA3.1 vector, digested with the restriction enzyme NheI and NotI, with the InFusion system (Clontech) according to the manufacturer's instructions.
After sequencing, the vectors containing the mutated sequences were prepared as Maxiprep using the Promega PureYield™ Plasmid Maxiprep System. Vectors were then used for HEK-293T cell transfection using Invitrogen's Lipofectamine 2000 according to the manufacturer instructions.
as §1, §2
Secondary screening was performed as in immunization #1, above. Potentially interesting hybridomas were cloned by limiting dilution techniques in 96-wells plates, and clones were tested in the same series of secondary screens as for hybridomas. With the aim to compare hybridomas to our reference anti-TLR3 mAbs, the hybridomas were amplified and their supernatants were purified. Purified mAbs were tested in a gene-reporter assay.
Antibodies were then tested for binding to further set of mutants in the N-terminal portion of TLR3 to identify new epitopes. Antibodies were therefore tested for binding to TLR3 mutants. TLR3 mutant polypeptides having mutations in positions Q44H and V45I, R64Q and R65Q, T86S and K89Q, K97I and M100L, K117Q and A120V, Q136H, N140S, V144K and K145N, K147A, K163A, Q167G, Q184L and K187R, Q184L and K187Q, D192E and A195G, Q208P and 1209L, H218Q, A219T, G234N and S236H, L243W and A246S, S112A. Q113S. and S115A, and K137S and K139A (reference to SEQ ID NO: 1) were prepared as described herein in the Materials and Methods and anti-TLR3 antibody staining to cells expressing TLR3 mutant polypeptides was assessed by FACS.

Molecule | infiltration of neutrophils into the airways (BAL differential cell count) ([1]; 28G7 i.p. 500 μg twice per week, roflumilast 3 mg/kg oral five times per week) | BAL macrophages and lymphocytes [1] | binding to surface-expressed human TLR3 [2] | inhibition of dsRNA-induced TLR3 signaling, potency compared with antibody 31C3 [3] | binding to wild type TLR3 and mutants K145E, D116R, E171A, K182E or N196A [4] | binding to TLR3 in presence of the mutation K145E or K182E [4]
O=C(Nc1c(Cl)cncc1Cl)c1ccc(OC(F)F)c(OCC2CC2)c1 [Roflumilast, roflumilast] | decreased infiltration of neutrophils | decreases in macrophages | – | – | – | –
B1 | – | – | strong binding | more potent | did not show any loss of binding | bound TLR3
B2 | – | – | strong binding | more potent | did not show any loss of binding | bound TLR3
B3 | – | – | strong binding | more potent | did not show any loss of binding | bound TLR3
B4 | – | – | strong binding | more potent | did not show any loss of binding | bound TLR3
B5 | – | – | – | more potent | did not show any loss of binding | bound TLR3
